{"source": "patent US20240166742A1", "about": "“MOLECULES THAT BIND TO AND STABILIZE TRIGGERING RECEPTOR EXPRESSED ON MYELOID CELLS 2 (TREM2)” (Novartis AG, priority 2015, published 2024)", "molecules": {"B1": {"name": "Human TACE (ADAM-17) recombinant catalytic domain (protein)", "chain": "RADPDPMKNTCKLLVVADHRFYRYMGRGEESTTTNYLIELIDRVDDIYRNTSWDNAGFKGYGIQIEQIRILKSPQEVKPGEKHYNMAKSYPNEEKDAWDVKMLLEQFSFDIAEEASKVCLAHLFTYQDFDMGTLGLAYVGSPRANSHGGVCPKAYYSPVGKKNIYLNSGLTSTKNYGKTILTKEADLVTTHELGHNFGAEHDPDGLAECAPNEDQGGKYVMYPIAVSGDHENNKMFSNCSKQSIYKTIESKAQECFQERSNKV"}}, "key": {"[1]": {"target": "T1, cell surface human TREM2 on CHO-hTREM2 cells (Homo sapiens, UniProt Q9NZC2)", "T1 construct": "expressed in transfected cells; host or cells: CHO cells, stably double transfected (G418 / hygromycin)", "T1 sequence (O43914 22-113 partner, one chain of several)": "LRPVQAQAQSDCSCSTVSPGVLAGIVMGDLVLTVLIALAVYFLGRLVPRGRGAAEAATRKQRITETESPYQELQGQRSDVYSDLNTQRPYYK", "experiment": "TREM2 surface stabilization by SOMAmers on CHO-hTREM2 cells (flow cytometry)", "type": "cell-based", "conditions": "37° C. for 3 hours", "experimental": "A HEK cell line stably expressing a chimeric receptor consisting of TREM2-extracellular domain and DAP12 was first described by Kleinberger et al. 2014. In analogy a TREM-2/DAP12 chimeric receptor expressing cell line was produced according to standard cell culture procedures. CHO cells were sequentially transfected with eukaryotic expression vectors for human DAP12 (hDAP12) and human TREM2 (hTREM2). Resulting CHO-hTREM2/hDAP12 double transfected cells (CHO-hTREM2) were grown in DMEM/F12 medium supplemented with 10% fetal bovine serum 0.2 mg/ml G418 and 0.2 mg/mL hygromycin. Confluent adherent CHO cells were harvested after treatment with cell dissociation buffer (Gibco 13151-014) and cell surface TREM2 was quantified by flow cytometry as described below. […]\nTREM2 SOMAmers were tested for their ability to stabilize or increase cell surface human TREM2, e.g., by modulating homeostatic dynamics of shedding or internalization. […] Cells were then assessed for surface human TREM2 by flow cytometry."}, "[2]": {"target": "T2, cell surface human TREM2 on primary human M2a macrophages (Homo sapiens, UniProt Q9NZC2)", "T2 construct": "Human M2a macrophages were generated from monocytes isolated from buffy coats; endogenous in cells; host or cells: primary human M2a macrophages differentiated from buffy-coat monocytes (MCSF + IL4)", "T2 sequence (Q9NZC2 19-230)": "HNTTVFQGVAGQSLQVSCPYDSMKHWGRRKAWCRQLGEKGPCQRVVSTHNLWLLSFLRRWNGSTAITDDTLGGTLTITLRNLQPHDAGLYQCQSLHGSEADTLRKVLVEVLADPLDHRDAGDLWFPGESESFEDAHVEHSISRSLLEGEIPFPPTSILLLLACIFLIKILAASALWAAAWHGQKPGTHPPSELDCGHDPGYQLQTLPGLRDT", "experiment": "TREM2 surface stabilization by SOMAmers on primary human M2a macrophages (flow cytometry)", "type": "cell-based", "conditions": "37° C. for 3 hours", "experimental": "Human M2a macrophages were generated from monocytes isolated from buffy coats by negative selection. M2a macrophages were generated by 5-6 days differentiation of monocytes in RPMI (supplemented 10% fetal bovine serum, and typical concentrations of Glutamax, Sodium pyruvate, Non Essential Amino Acids, HEPES) with MCSF 40 ng/mL (R&D) and 50 ng/mL IL4 (R&D). M2a macrophages were harvested with cell dissociation buffer (Gibco 13151-014) and cell surface TREM2 was assessed by flow cytometry as described below.\nCells were stained for TREM2 surface expression in FACS buffer (PBS, containing 10% heat-inactivated human serum AB male (Invitromex), 0.05% w/v sodium azide, 5 mM EDTA, 1 mg/mL Privigen (Mg) in PBS using goat anti-human TREM2 (R&D) or an appropriate isotype control. Cells were counterstained with F(ab)′2 fragments of an rabbit anti-goat IgG polyclonal antibody conjugated with Alexa488 (LifeTechnologies). All stainings were performed on ice for 30 min Cells were assessed for TREM2 surface expression on a BD LSR Fortessa or a FacsCalibur flow cytometer. Median fluorescence intensities corresponding to the degree of anti-TREM2 bound to cells were evaluated using FlowJo (Millipore INC)\nTREM2 SOMAmers were tested for their ability to stabilize or increase cell surface human TREM2, e.g., by modulating homeostatic dynamics of shedding or internalization. […]"}, "[3]": {"target": "T1, cell surface human TREM2 on CHO-hTREM2 cells", "experiment": "Binding of biotinylated SOMAmers to cellular TREM2 by flow cytometry", "type": "cell-based", "conditions": "CHO-hTREM2 vs CHO control cells; on ice; streptavidin-APC detection", "experimental": "A HEK cell line stably expressing a chimeric receptor consisting of TREM2-extracellular domain and DAP12 was first described by Kleinberger et al. 2014. In analogy a TREM-2/DAP12 chimeric receptor expressing cell line was produced according to standard cell culture procedures. CHO cells were sequentially transfected with eukaryotic expression vectors for human DAP12 (hDAP12) and human TREM2 (hTREM2). Resulting CHO-hTREM2/hDAP12 double transfected cells (CHO-hTREM2) were grown in DMEM/F12 medium supplemented with 10% fetal bovine serum 0.2 mg/ml G418 and 0.2 mg/mL hygromycin. Confluent adherent CHO cells were harvested after treatment with cell dissociation buffer (Gibco 13151-014) and cell surface TREM2 was quantified by flow cytometry as described below.\nBinding of SOMAmers to cellular TREM2 was assessed by incubation of biotinylated SOMAmers at various concentrations with CHO-hTREM2 cells. In this case binding of SOMAmers to cell surface TREM2 was done on ice for 20-30 min to prevent modulation of cell surface TREM2. […] Cells were thereafter washed with FACS buffer and bound biotinylated SOMAmers were detected via streptavidin-APC conjugate (Biolegend, Inc). Median fluorescence intensities corresponding to the degree of TREM2 SOMAmer bound to cells were acquired on a FacsCalibur flow cytometer and evaluated using FlowJo (Millipore INC)."}, "[4]": {"target": "T3, human TREM2 stalk region Peptide 79", "T3 chain": "VEVLADPLDHRD"}, "[5]": {"target": "T4, human TREM2 stalk region Peptide 77", "T4 chain": "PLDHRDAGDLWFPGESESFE"}, "[6]": {"target": "T5, human TREM2 stalk region Peptide 76", "T5 chain": "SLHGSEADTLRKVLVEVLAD"}, "[7]": {"target": "T6, human TREM2 stalk region Peptide 78", "T6 chain": "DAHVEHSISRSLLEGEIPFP"}, "[8]": {"target": "T7, human TREM2 stalk region Peptide 80", "T7 chain": "ESESFEDAHVEH"}}, "note": "[NapdU] = code of the source, not defined here", "data": [{"molecule": "UX95-90BC: TREM2 SOMAmer (slow off-rate modified aptamer), core sequence SEQ ID NO: 12, P = NapdU modified dUTP residue (DNA CCCTCGAUCCGGUGGCGGAUCCUAAGUAUUGGCCCGGUCCGCCAAGAAGA; DNA, [NapdU] at 8, 13, 20, 23, 27, 29, 30, 38, backbone and methylation of C not given here; further chemistry not fully specified)", "values": [{"measurement": "cell surface human TREM2 level (stabilization)", "setting": "[1]", "result": "stabilized and increased cell surface human TREM-2"}]}, {"molecule": "KX86-94WC: TREM2 SOMAmer, core sequence SEQ ID NO: 13, P = NapdU modified dUTP residue (DNA CCCTCUGUCAACCUCCACACAGGCCUUUGAUGCAAGUAUACAGUGGAAGA; DNA, [NapdU] at 6, 8, 14, 26, 27, 28, 31, 37, 39, 44, backbone and methylation of C not given here; further chemistry not fully specified)", "values": [{"measurement": "cell surface human TREM2 level (stabilization)", "setting": "[1]", "result": "stabilized cell surface human TREM2"}, {"measurement": "cell surface human TREM2 level (stabilization)", "setting": "[2]", "result": "stabilized cell surface human TREM2"}]}, {"molecule": "EX83-95HC: control SOMAmer, core sequence SEQ ID NO: 14 (DNA CCCTCCCUAUCGCAAUGACACAUUGGGGUCUCGAGGUGCGCGAUCGAAGA; DNA, [NapdU] at 8, 10, 16, 23, 24, 29, 31, 37, 44, backbone and methylation of C not given here; further chemistry not fully specified)", "values": [{"measurement": "binding to cell surface human TREM2", "setting": "[3]", "result": "did not bind to cell surface human TREM2"}]}, {"molecule": "B1", "values": [{"measurement": "TACE cleavage of the Mca-labelled peptide (HPLC/HRMS)", "setting": "[4]", "result": "no TACE cleavages were observed for Peptides 76, 79, 77 and 80"}, {"measurement": "TACE cleavage of the Mca-labelled peptide (HPLC/HRMS)", "setting": "[5]", "result": "no TACE cleavages were observed for Peptides 76, 79, 77 and 80"}, {"measurement": "TACE cleavage of the Mca-labelled peptide (HPLC/HRMS)", "setting": "[6]", "result": "no TACE cleavages were observed for Peptides 76, 79, 77 and 80"}, {"measurement": "TACE cleavage of the Mca-labelled peptide (HPLC/HRMS)", "setting": "[7]", "result": "For Peptide 78, two main cleavage products by TACE were found: DAHVEH (termed X01, SEQ ID NO: 25) and SISRSLLEGEIPFP (termed X02, SEQ ID NO: 26)"}, {"measurement": "TACE cleavage of the Mca-labelled peptide (HPLC/HRMS)", "setting": "[8]", "result": "no TACE cleavages were observed for Peptides 76, 79, 77 and 80"}]}]}
